For test [1], the target named is Sandercyanin His-108-Ala (Stizostedion vitreum (formerly Sander vitreus), walleye).
For test [2], the target named is Sandercyanin Phe-106-Ala (Stizostedion vitreum (formerly Sander vitreus), walleye).
Test [3] deals with Sandercyanin Tyr-142-Ala (Y142A) (Stizostedion vitreum (formerly Sander vitreus), walleye).
Test [4] has as its target wild-type Sandercyanin (Stizostedion vitreum (formerly Sander vitreus), walleye). The test is described as follows: SEC.

Broadly, the stoichiometry N is the number of molecules, sites or subunits per partner or assembly. “Sandercyanin His-108-Ala (natural protein)” registered a stoichiometry N in test [1] of 4.
As to “Sandercyanin Phe-106-Ala (natural protein)”, the stoichiometry N in test [2] came to 4.
“Sandercyanin Tyr-142-Ala (Y142A) (natural protein)” registered a stoichiometry N in test [3] of 4.
Take “wild-type Sandercyanin (natural protein)”: the stoichiometry N in test [4] came out at 4.

For the origin of these results see paper doi:10.1101/2021.04.02.438172.
